Measured values taken from PMC9482650, “Quantitative fragmentomics allow affinity mapping of interactomes” (Nature Communications, 2022).

T1: MPP7, Q5T2T1
T1 sequence (Q5T2T1 134-230, limits assumed, looked up): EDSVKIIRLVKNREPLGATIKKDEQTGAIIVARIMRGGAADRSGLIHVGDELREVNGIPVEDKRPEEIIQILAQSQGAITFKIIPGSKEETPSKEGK

T2: MPDZ_10, O75970
T2 sequence (O75970 1624-1722, limits assumed, looked up): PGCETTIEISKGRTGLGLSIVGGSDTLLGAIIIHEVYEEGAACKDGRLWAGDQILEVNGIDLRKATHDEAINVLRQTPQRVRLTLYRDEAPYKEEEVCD

T3: RAPGEF6, Q8TEU7
T3 sequence (Q8TEU7 525-625, limits assumed, looked up): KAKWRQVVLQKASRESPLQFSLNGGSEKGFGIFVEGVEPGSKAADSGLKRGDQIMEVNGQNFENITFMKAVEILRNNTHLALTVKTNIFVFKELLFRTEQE

T4: DFNB31_2, Q9P202
T4 sequence (Q9P202 274-371, limits assumed, looked up): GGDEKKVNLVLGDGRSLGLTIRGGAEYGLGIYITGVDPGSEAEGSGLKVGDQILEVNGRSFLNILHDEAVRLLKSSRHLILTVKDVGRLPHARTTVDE

T5: MPP6, Q9NZW5
T5 sequence (Q9NZW5 125-219, limits assumed, looked up): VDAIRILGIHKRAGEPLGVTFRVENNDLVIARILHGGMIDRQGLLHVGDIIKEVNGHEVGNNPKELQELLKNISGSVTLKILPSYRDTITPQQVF

T6: MPDZ_5, O75970
T6 sequence (O75970 695-796, limits assumed, looked up): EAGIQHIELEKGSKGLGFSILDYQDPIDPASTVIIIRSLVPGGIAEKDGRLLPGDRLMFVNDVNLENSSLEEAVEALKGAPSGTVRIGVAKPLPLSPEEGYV

T7: GRIP1_2, Q9Y3R0
T7 sequence (Q9Y3R0 145-248, limits assumed, looked up): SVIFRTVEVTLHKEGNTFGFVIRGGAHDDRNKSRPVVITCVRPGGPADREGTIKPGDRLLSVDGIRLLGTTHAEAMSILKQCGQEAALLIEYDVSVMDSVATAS

T8: GRIP1_7, Q9Y3R0
T8 sequence (Q9Y3R0 999-1096, limits assumed, looked up): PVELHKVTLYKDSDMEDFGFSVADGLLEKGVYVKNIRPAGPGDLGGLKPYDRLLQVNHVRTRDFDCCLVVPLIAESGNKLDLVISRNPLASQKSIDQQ

T9: RADIL, Q96JH8
T9 sequence (Q96JH8 971-1071, limits assumed, looked up): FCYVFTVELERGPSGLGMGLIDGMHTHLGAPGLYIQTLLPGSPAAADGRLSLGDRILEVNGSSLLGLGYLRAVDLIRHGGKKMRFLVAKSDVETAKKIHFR

T10: LRRC7, Q96NW7
T10 sequence (Q96NW7 1440-1537, limits assumed, looked up): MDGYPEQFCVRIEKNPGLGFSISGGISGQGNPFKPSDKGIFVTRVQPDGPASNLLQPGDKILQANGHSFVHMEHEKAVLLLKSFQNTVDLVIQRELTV


What follows are binders tested against T1, MPP7, Q5T2T1 (assay: holdup assay). Settings: plain residues with an end cap or a label only (N-terminal biotin on a linker: ado-ado).
Set-up: key: below the threshold = too weak to quantify, mostly under pKd 3.1 to 4

Question: With KAEEKPPSKV [SCN4B, Q8IWT1] as the binder, how does the pKd read?
Answer: below the threshold

Each binder was assayed against T2, MPDZ_10, O75970 (assay: holdup assay). Settings: plain residues with an end cap or a label only (N-terminal biotin on a linker: ado-ado).
Set-up: key: below the threshold = too weak to quantify, mostly under pKd 3.1 to 4

Question: Which pKd does the source give for KAEEKPPSKV [SCN4B, Q8IWT1] here?
Answer: 3.71

These binders were tested against HTRA2, O43464 (assay: holdup assay). Settings: plain residues with an end cap or a label only (N-terminal biotin on a linker: ado-ado).
Sequence of HTRA2, O43464 (O43464 355-458): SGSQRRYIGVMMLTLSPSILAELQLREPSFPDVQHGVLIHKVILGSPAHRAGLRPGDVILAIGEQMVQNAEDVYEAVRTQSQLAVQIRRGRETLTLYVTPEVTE
Set-up: key: below the threshold = too weak to quantify, mostly under pKd 3.1 to 4

Question: How did the pKd turn out when KAEEKPPSKV [SCN4B, Q8IWT1] was run?
Answer: below the threshold

Each binder was assayed against MAGI2_3, Q86UL8 (assay: holdup assay). Settings: plain residues with an end cap or a label only (N-terminal biotin on a linker: ado-ado).
Sequence of MAGI2_3, Q86UL8 (Q86UL8 600-682): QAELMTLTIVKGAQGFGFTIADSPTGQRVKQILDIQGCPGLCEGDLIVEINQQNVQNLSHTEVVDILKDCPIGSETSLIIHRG
Set-up: key: below the threshold = too weak to quantify, mostly under pKd 3.1 to 4

Question: How did the pKd turn out when KAEEKPPSKV [SCN4B, Q8IWT1] was run?
Answer: 3.48

These binders were tested against FRMPD4, Q14CM0 (assay: holdup assay). Settings: plain residues with an end cap or a label only (N-terminal biotin on a linker: ado-ado).
Sequence of FRMPD4, Q14CM0 (Q14CM0 67-160): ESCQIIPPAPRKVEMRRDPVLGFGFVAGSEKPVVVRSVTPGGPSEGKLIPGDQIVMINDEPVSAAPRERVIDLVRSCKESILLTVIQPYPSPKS
Set-up: key: below the threshold = too weak to quantify, mostly under pKd 3.1 to 4

Question: With KAEEKPPSKV [SCN4B, Q8IWT1] as the binder, how does the pKd read?
Answer: below the threshold

What follows are binders tested against FRMPD2_3, Q68DX3 (assay: holdup assay). Settings: plain residues with an end cap or a label only (N-terminal biotin on a linker: ado-ado).
Sequence of FRMPD2_3, Q68DX3 (Q68DX3 1073-1166): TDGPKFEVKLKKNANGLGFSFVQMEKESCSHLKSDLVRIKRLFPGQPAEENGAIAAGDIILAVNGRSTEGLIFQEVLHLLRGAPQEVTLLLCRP
Set-up: key: below the threshold = too weak to quantify, mostly under pKd 3.1 to 4

Question: With KAEEKPPSKV [SCN4B, Q8IWT1] as the binder, how does the pKd read?
Answer: below the threshold

Each binder was assayed against DLG4_3, P78352 (assay: holdup assay). Settings: plain residues with an end cap or a label only (N-terminal biotin on a linker: ado-ado).
Sequence of DLG4_3, P78352 (P78352 306-403): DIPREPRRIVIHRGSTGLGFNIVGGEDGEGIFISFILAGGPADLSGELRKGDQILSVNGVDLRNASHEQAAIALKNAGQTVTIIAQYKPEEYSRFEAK
Set-up: key: below the threshold = too weak to quantify, mostly under pKd 3.1 to 4

Question: How did the pKd turn out when KAEEKPPSKV [SCN4B, Q8IWT1] was run?
Answer: below the threshold

The binders below were run against PTPN3, P26045 (assay: holdup assay). Settings: plain residues with an end cap or a label only (N-terminal biotin on a linker: ado-ado).
Sequence of PTPN3, P26045 (P26045 505-587): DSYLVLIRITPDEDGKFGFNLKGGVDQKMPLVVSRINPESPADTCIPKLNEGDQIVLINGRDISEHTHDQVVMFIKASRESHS
Set-up: key: below the threshold = too weak to quantify, mostly under pKd 3.1 to 4

Question: With KAEEKPPSKV [SCN4B, Q8IWT1] as the binder, how does the pKd read?
Answer: below the threshold

These binders were tested against T3, RAPGEF6, Q8TEU7 (assay: holdup assay). Settings: plain residues with an end cap or a label only (N-terminal biotin on a linker: ado-ado).
Set-up: key: below the threshold = too weak to quantify, mostly under pKd 3.1 to 4

Question: For KAEEKPPSKV [SCN4B, Q8IWT1], which pKd is on record?
Answer: below the threshold

These binders were tested against T4, DFNB31_2, Q9P202 (assay: holdup assay). Settings: plain residues with an end cap or a label only (N-terminal biotin on a linker: ado-ado).
Set-up: key: below the threshold = too weak to quantify, mostly under pKd 3.1 to 4

Question: Which pKd does the source give for KAEEKPPSKV [SCN4B, Q8IWT1] here?
Answer: below the threshold

These binders were tested against NHERF4_1, Q86UT5-2 (assay: holdup assay). Settings: plain residues with an end cap or a label only (N-terminal biotin on a linker: ado-ado).
Sequence of NHERF4_1, Q86UT5-2 (Q86UT5 other isoform, or with tags, fused parts or gaps): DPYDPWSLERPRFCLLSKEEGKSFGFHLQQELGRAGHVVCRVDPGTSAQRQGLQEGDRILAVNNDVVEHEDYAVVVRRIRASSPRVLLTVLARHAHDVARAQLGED
Set-up: key: below the threshold = too weak to quantify, mostly under pKd 3.1 to 4

Question: How did the pKd turn out when KAEEKPPSKV [SCN4B, Q8IWT1] was run?
Answer: below the threshold

What follows are binders tested against CASK, O14936 (assay: holdup assay). Settings: plain residues with an end cap or a label only (N-terminal biotin on a linker: ado-ado).
Sequence of CASK, O14936 (O14936 487-570): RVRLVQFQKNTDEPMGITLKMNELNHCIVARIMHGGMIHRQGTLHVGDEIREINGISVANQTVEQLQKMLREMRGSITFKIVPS
Set-up: key: below the threshold = too weak to quantify, mostly under pKd 3.1 to 4

Question: Which pKd does the source give for KAEEKPPSKV [SCN4B, Q8IWT1] here?
Answer: below the threshold

These binders were tested against LDB3, O75112 (assay: holdup assay). Settings: plain residues with an end cap or a label only (N-terminal biotin on a linker: ado-ado).
Sequence of LDB3, O75112 (O75112 1-94): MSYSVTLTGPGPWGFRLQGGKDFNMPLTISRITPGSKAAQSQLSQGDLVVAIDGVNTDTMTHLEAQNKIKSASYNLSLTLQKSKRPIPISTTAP
Set-up: key: below the threshold = too weak to quantify, mostly under pKd 3.1 to 4

Question: For KAEEKPPSKV [SCN4B, Q8IWT1], which pKd is on record?
Answer: below the threshold

The binders below were run against GRIP2_6, Q9C0E4 (assay: holdup assay). Settings: plain residues with an end cap or a label only (N-terminal biotin on a linker: ado-ado).
Sequence of GRIP2_6, Q9C0E4 (Q9C0E4 648-740): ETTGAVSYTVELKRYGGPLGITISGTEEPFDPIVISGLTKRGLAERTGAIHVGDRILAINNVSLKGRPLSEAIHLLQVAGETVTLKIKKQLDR
Set-up: key: below the threshold = too weak to quantify, mostly under pKd 3.1 to 4

Question: Which pKd does the source give for KAEEKPPSKV [SCN4B, Q8IWT1] here?
Answer: below the threshold

Each binder was assayed against MAGI2_5, Q86UL8 (assay: holdup assay). Settings: plain residues with an end cap or a label only (N-terminal biotin on a linker: ado-ado).
Sequence of MAGI2_5, Q86UL8 (Q86UL8 915-1017): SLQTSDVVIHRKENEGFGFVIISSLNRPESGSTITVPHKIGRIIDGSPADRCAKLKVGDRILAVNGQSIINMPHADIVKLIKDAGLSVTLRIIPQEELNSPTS
Set-up: key: below the threshold = too weak to quantify, mostly under pKd 3.1 to 4

Question: For KAEEKPPSKV [SCN4B, Q8IWT1], which pKd is on record?
Answer: 3.51

These binders were tested against GIPC2, Q8TF65 (assay: holdup assay). Settings: plain residues with an end cap or a label only (N-terminal biotin on a linker: ado-ado).
Sequence of GIPC2, Q8TF65 (Q8TF65 112-203): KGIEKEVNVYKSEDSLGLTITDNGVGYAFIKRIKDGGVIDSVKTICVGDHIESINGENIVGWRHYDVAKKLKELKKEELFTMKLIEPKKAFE
Set-up: key: below the threshold = too weak to quantify, mostly under pKd 3.1 to 4

Question: For KAEEKPPSKV [SCN4B, Q8IWT1], which pKd is on record?
Answer: below the threshold

What follows are binders tested against T5, MPP6, Q9NZW5 (assay: holdup assay). Settings: plain residues with an end cap or a label only (N-terminal biotin on a linker: ado-ado).
Set-up: key: below the threshold = too weak to quantify, mostly under pKd 3.1 to 4

Question: Which pKd does the source give for KAEEKPPSKV [SCN4B, Q8IWT1] here?
Answer: below the threshold

What follows are binders tested against T6, MPDZ_5, O75970 (assay: holdup assay). Settings: plain residues with an end cap or a label only (N-terminal biotin on a linker: ado-ado).
Set-up: key: below the threshold = too weak to quantify, mostly under pKd 3.1 to 4

Question: For KAEEKPPSKV [SCN4B, Q8IWT1], which pKd is on record?
Answer: below the threshold

These binders were tested against T7, GRIP1_2, Q9Y3R0 (assay: holdup assay). Settings: plain residues with an end cap or a label only (N-terminal biotin on a linker: ado-ado).
Set-up: key: below the threshold = too weak to quantify, mostly under pKd 3.1 to 4

Question: Which pKd does the source give for KAEEKPPSKV [SCN4B, Q8IWT1] here?
Answer: below the threshold

What follows are binders tested against T8, GRIP1_7, Q9Y3R0 (assay: holdup assay). Settings: plain residues with an end cap or a label only (N-terminal biotin on a linker: ado-ado).
Set-up: key: below the threshold = too weak to quantify, mostly under pKd 3.1 to 4

Question: KAEEKPPSKV [SCN4B, Q8IWT1] was tested. Which pKd did it give?
Answer: below the threshold

Each binder was assayed against MAST1, Q9Y2H9 (assay: holdup assay). Settings: plain residues with an end cap or a label only (N-terminal biotin on a linker: ado-ado).
Sequence of MAST1, Q9Y2H9 (Q9Y2H9 962-1065): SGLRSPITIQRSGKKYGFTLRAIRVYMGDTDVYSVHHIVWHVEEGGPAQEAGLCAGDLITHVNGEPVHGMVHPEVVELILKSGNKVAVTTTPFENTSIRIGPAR
Set-up: key: below the threshold = too weak to quantify, mostly under pKd 3.1 to 4

Question: How did the pKd turn out when KAEEKPPSKV [SCN4B, Q8IWT1] was run?
Answer: 3.69

The binders below were run against T9, RADIL, Q96JH8 (assay: holdup assay). Settings: plain residues with an end cap or a label only (N-terminal biotin on a linker: ado-ado).
Set-up: key: below the threshold = too weak to quantify, mostly under pKd 3.1 to 4

Question: How did the pKd turn out when KAEEKPPSKV [SCN4B, Q8IWT1] was run?
Answer: below the threshold

The binders below were run against IL16_1, Q14005 (assay: holdup assay). Settings: plain residues with an end cap or a label only (N-terminal biotin on a linker: ado-ado).
Sequence of IL16_1, Q14005 (Q14005 210-306): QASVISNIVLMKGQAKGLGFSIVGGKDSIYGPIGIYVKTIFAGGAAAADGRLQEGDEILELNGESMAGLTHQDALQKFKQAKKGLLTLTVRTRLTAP
Set-up: key: below the threshold = too weak to quantify, mostly under pKd 3.1 to 4

Question: Which pKd does the source give for KAEEKPPSKV [SCN4B, Q8IWT1] here?
Answer: below the threshold

Each binder was assayed against Inadl_4, Q8NI35 (assay: holdup assay). Settings: plain residues with an end cap or a label only (N-terminal biotin on a linker: ado-ado).
Sequence of Inadl_4, Q8NI35 (Q8NI35 547-651): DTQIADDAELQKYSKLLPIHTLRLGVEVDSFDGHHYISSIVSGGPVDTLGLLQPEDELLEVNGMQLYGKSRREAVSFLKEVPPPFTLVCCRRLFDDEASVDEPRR
Set-up: key: below the threshold = too weak to quantify, mostly under pKd 3.1 to 4

Question: With KAEEKPPSKV [SCN4B, Q8IWT1] as the binder, how does the pKd read?
Answer: below the threshold

What follows are binders tested against T10, LRRC7, Q96NW7 (assay: holdup assay). Settings: plain residues with an end cap or a label only (N-terminal biotin on a linker: ado-ado).
Set-up: key: below the threshold = too weak to quantify, mostly under pKd 3.1 to 4

Question: Which pKd does the source give for KAEEKPPSKV [SCN4B, Q8IWT1] here?
Answer: below the threshold

The binders below were run against Inadl_2, Q8NI35 (assay: holdup assay). Settings: plain residues with an end cap or a label only (N-terminal biotin on a linker: ado-ado).
Sequence of Inadl_2, Q8NI35 (Q8NI35 238-335): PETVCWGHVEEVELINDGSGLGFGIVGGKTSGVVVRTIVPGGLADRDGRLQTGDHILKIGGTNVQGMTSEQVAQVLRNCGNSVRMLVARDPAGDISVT
Set-up: key: below the threshold = too weak to quantify, mostly under pKd 3.1 to 4

Question: Which pKd does the source give for KAEEKPPSKV [SCN4B, Q8IWT1] here?
Answer: below the threshold

Each binder was assayed against PDZRN4_1, Q6ZMN7 (assay: holdup assay). Settings: plain residues with an end cap or a label only (N-terminal biotin on a linker: ado-ado).
Sequence of PDZRN4_1, Q6ZMN7 (Q6ZMN7 213-318): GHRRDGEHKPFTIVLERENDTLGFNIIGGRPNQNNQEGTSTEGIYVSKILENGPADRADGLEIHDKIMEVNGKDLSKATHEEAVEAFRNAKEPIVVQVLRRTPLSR
Set-up: key: below the threshold = too weak to quantify, mostly under pKd 3.1 to 4

Question: Which pKd does the source give for KAEEKPPSKV [SCN4B, Q8IWT1] here?
Answer: below the threshold

Each binder was assayed against MAGI3_2, Q5TCQ9 (assay: holdup assay). Settings: plain residues with an end cap or a label only (N-terminal biotin on a linker: ado-ado).
Sequence of MAGI3_2, Q5TCQ9 (Q5TCQ9 398-503): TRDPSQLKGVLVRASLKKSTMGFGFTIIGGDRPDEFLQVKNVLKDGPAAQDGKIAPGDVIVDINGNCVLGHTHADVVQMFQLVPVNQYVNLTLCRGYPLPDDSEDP
Set-up: key: below the threshold = too weak to quantify, mostly under pKd 3.1 to 4

Question: Which pKd does the source give for KAEEKPPSKV [SCN4B, Q8IWT1] here?
Answer: below the threshold
